Measured values: patent US20100092467A1 (US Dept. of Health and Human Services, published 2010)
Ends that are not written are not given here. * marks the point of attachment. Biotin = O=C1N[C@H]2[C@H](CS[C@H]2CCCCC(=O)*)N1

B1: peptide C6b (HIGWKDFTAYRWRLS) (peptide)
peptide: HIGWKDFTAYRWRLS
B2: peptide 37414 (IGWHDFTAYR) (peptide)
peptide: IGWHDFTAYR
B3: peptide C6d (biotin-IGWKDFTAYR) (peptide)
peptide: Biotin-IGWKDFTAYR
B4: peptide 37299 (peptide)
peptide: IGWKDFAAYR
B5: peptide 37300 (Ac-WKDFTAYR) (peptide)
peptide: Ac-WKDFTAYR
B6: peptide 37298 (IGWKDYTAYR) (peptide)
peptide: IGWKDYTAYR
B7: peptide 37413 (peptide)
peptide: IGWADFTAYR
B8: peptide 37416 (AGWKDFTAYR) (peptide)
peptide: AGWKDFTAYR
B9: peptide 37417 (IGYKDFTAYR) (peptide)
peptide: IGYKDFTAYR
B10: peptide 37297 (IGWKNFTAYR) (peptide)
peptide: IGWKNFTAYR
B11: peptide 37555 (IGWKDFTAAR) (peptide)
peptide: IGWKDFTAAR
B12: peptide 37415 (IGWKEFTAYR) (peptide)
peptide: IGWKEFTAYR

Target: CD47, human, endogenous on cells (human, UniProt Q08722 19-323)
Assay: cell-based or functional assay

“E3CaG1, recombinant C-terminal regions of TSP1 (from UniProt P07996 646-1170) (ligand)” was tested, and the NO-driven HASMC adhesion to collagen was greater than 0.4 nM.

Going from B1 to B2, the “cGMP signaling IC50**” value rises from roughly 100 nM to greater than 10000 nM.

Going from B3 to B4, the “cGMP signaling IC50**” value rises from roughly 100 nM to greater than 10000 nM.

Compared with B5, B6 is 10-fold lower in “cGMP signaling IC50**” value: roughly 1000 nM for the first, roughly 100 nM for the second.

First: B7
Second: B8
The “cGMP signaling IC50**” value of the first is higher: greater than 10000 nM for the first, roughly 1000 nM for the second.

Compared with B9, B10 is higher in “cGMP signaling IC50**” value: roughly 100 nM for the first, greater than 10000 nM for the second.

Compared with B11, B12 is 10-fold lower in “cGMP signaling IC50**” value: roughly 10000 nM for the first, 1000 nM for the second.

Target: CD36, murine, endogenous on cells (mouse) (UniProt Q08857)
Assay: cell-based or functional assay

Sequence of CD36, murine, endogenous on cells (mouse) (Q08857 whole entry): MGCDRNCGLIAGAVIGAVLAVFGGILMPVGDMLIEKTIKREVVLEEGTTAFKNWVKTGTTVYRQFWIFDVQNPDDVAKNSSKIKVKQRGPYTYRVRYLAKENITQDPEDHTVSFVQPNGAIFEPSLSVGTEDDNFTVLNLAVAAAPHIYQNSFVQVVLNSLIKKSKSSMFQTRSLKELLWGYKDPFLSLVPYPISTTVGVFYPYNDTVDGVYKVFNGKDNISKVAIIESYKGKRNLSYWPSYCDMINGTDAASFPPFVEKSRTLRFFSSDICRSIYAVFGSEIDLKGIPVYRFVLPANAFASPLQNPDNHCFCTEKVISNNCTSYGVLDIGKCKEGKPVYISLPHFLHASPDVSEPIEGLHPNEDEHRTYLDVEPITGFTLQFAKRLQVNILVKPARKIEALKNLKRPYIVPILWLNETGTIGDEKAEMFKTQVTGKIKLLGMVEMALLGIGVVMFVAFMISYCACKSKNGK

“Thrombospondin-1 (TSP1), prepared from human platelets (from UniProt P07996 19-1170) (ligand)” showed an NO-stimulated adhesion of MASMC on type I collagen of 22 nM.
